According to article PMC3610674:
Like-named read-outs stand apart in the source and are kept apart here.

Experiments:
[1] = target: proNS5-HA (proteolytically-processed HA-tagged DENV2 NS5) (dengue virus serotype 2 (DENV2)); assay: co-IP
[2] = target: proNS5-HA (proteolytically-processed HA-tagged DENV2 NS5) (dengue virus serotype 2 (DENV2)); assay: co-IP; remark: listed apart in the source

Substance: UBR4 (human, endogenous) (from UniProt Q5T4S7 1-5183) (natural protein)
- fold UBR4 precipitated against NS5-HA (densitometry) [1]: 7 fold
- fold UBR4 precipitated against NS5-HA (densitometry) [2]: 2 fold
